The text below walks through data of PMC10035508.

In the data set the target is PTBP1 (hsPTBP1) (Homo sapiens) (UniProt P26599). Nature of the data set: EMSA. As to conditions: EMSA in RBB: 10 mM sodium cacodylate pH 7.0, 100 mM NaCl, 1 mM MgCl2, 1 mM DTT, 0.1 ug/uL BSA, 0.1 ug/uL yeast tRNA, 0.4 U/uL RNasin, 1 U/uL heparin …. Background: A gel shift assay detects complexes by their altered migration in electrophoresis.
PTBP1 (hsPTBP1) (Homo sapiens), sequence (P26599 whole entry): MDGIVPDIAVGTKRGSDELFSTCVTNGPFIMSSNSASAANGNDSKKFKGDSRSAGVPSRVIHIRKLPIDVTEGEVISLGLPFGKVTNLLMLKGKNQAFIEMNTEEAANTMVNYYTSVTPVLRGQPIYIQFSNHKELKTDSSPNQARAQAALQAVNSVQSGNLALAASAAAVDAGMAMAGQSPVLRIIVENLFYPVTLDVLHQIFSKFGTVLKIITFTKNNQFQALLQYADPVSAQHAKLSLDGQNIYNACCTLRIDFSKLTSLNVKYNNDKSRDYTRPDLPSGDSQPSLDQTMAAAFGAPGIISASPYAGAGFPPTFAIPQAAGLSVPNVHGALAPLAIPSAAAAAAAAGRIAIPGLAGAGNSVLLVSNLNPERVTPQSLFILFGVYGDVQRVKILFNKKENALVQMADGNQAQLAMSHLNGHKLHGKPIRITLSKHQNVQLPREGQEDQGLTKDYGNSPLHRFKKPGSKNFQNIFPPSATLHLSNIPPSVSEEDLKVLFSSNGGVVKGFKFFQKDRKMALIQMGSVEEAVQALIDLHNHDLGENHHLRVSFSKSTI

Consider “GGGUCUCCUUUCAGCCUGCUUCAGGAAUGAGCUUGUGGAGCCCCGGAGAGAAACUCCAAAACAAUCUGACGUCUUCUUUAGACAUUCCAAGCCCCCAAACCGAUCAGUGUAC [FRAGT7]”, for which the binding result was “no binding”.

On to “GGGGUUCCUCCCCUCCAUCUUCCCACACCCAGUCACCAGCACUGUAUUUUCUGUCACCAAGACAAUGAUUUCUUGUUAUUGAGGCUGUUGCUUUUGUGGAUGUG [CPA1]”, for which the binding result is reported as “no binding”.
